# Data published in patent US20230395193A1 (priority 2020, published 2023).
# Target: T1, Orf8-IL17RA interaction (Homo sapiens, UniProt Q96F46)
# T1 construct: co-immunoprecipitation of endogenous IL17RA with Strep-tagged Orf8; host or cells: HEK293T
# T1 sequence (Q96F46 33-866): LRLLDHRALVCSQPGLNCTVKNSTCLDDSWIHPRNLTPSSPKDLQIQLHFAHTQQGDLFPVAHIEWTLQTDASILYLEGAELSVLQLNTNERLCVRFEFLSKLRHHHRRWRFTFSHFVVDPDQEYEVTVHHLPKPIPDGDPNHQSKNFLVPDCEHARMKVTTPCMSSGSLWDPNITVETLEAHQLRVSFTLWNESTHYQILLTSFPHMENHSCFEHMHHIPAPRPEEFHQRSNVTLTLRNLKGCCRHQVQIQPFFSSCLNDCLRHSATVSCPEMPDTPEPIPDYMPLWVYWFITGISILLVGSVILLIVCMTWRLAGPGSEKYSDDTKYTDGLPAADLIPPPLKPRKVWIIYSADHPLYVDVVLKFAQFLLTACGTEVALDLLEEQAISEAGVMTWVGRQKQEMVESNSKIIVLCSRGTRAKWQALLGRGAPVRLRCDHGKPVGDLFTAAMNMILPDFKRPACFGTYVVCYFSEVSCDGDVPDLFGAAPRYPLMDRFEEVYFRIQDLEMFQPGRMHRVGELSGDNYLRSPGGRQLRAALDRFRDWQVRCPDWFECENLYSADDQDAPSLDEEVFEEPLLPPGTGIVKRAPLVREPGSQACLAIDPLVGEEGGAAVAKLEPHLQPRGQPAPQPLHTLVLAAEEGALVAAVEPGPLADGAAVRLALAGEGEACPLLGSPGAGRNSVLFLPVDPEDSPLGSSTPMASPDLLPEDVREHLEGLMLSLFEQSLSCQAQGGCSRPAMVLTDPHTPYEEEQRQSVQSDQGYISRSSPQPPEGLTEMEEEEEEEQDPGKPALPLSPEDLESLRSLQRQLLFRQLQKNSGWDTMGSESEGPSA
# Type: binding
substance,measurement,value
IL-17A,"Effect on Orf8-IL17RA interaction (co-immunoprecipitation, in words)",does not disrupt the interaction with Orf8
